Key:
[1] = molecular target: T1, Human MerTK on hMerTK-expressing cells (human, UniProt Q12866 21-999); test: cell-based or functional assay
T1 sequence: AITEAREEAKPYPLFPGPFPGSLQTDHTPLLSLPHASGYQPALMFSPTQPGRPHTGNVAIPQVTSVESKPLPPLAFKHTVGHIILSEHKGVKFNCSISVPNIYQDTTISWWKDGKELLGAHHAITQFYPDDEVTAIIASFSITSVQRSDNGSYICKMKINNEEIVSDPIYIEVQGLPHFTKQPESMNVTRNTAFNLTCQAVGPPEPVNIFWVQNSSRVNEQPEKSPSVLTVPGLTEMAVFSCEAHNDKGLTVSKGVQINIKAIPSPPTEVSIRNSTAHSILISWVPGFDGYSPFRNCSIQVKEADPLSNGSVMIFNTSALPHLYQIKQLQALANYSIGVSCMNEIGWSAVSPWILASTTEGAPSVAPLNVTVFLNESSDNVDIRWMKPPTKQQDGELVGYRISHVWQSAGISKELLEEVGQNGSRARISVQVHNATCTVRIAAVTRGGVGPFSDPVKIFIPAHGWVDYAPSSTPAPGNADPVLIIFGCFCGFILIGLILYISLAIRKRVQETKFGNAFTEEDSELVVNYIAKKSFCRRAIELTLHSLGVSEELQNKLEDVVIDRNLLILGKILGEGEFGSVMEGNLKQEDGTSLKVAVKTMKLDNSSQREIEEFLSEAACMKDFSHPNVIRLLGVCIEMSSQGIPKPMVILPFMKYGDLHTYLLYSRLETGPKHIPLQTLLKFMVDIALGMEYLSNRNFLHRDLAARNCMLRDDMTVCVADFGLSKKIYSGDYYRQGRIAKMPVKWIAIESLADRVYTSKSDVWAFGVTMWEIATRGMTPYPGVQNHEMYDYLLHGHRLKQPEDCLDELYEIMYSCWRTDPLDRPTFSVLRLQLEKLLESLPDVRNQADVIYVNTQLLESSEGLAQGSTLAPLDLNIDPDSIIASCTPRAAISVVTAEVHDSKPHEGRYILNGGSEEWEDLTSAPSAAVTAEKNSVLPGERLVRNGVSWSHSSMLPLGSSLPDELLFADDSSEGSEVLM

[2] = molecular target: T2, Mouse MerTK on mMerTK-expressing cells (mouse, UniProt Q60805 19-994); test: cell-based or functional assay
T2 sequence: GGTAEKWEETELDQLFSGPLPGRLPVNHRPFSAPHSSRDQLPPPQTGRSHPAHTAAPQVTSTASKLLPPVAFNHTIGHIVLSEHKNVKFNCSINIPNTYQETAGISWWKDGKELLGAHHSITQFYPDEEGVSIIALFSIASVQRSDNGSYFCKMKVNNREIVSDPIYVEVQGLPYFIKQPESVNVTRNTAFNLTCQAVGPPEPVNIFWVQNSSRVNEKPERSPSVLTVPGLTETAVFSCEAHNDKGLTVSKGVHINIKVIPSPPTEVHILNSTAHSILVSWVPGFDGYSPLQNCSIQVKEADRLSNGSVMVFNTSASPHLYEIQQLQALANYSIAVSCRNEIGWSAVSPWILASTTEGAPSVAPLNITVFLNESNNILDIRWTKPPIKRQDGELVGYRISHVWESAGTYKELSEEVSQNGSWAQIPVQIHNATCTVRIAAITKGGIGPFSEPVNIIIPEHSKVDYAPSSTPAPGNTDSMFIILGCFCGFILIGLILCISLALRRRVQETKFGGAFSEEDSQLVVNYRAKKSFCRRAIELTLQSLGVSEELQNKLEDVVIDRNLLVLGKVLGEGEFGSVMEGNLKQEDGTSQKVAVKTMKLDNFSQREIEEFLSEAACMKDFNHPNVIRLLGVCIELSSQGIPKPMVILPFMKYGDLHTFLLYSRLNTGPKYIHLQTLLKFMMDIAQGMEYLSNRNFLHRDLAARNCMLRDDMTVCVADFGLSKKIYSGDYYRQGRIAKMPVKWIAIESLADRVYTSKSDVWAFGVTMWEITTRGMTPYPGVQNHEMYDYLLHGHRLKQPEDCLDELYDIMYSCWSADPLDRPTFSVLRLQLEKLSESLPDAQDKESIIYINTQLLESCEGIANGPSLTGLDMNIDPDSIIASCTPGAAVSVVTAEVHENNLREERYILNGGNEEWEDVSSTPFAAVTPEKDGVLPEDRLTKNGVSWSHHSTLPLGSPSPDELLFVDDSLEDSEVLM

[3] = molecular target: T1, Human MerTK on hMerTK-expressing cells; test: binding to hMerTK-expressing cells
[4] = molecular target: T3, Recombinant soluble extracellular domain of human MerTK (human, UniProt Q12866 21-505); test: SPR, soluble MerTK ECD; format for mouse mAbs not detailed
T3 construct: SPR analyte; also called hMerTK
T3 sequence: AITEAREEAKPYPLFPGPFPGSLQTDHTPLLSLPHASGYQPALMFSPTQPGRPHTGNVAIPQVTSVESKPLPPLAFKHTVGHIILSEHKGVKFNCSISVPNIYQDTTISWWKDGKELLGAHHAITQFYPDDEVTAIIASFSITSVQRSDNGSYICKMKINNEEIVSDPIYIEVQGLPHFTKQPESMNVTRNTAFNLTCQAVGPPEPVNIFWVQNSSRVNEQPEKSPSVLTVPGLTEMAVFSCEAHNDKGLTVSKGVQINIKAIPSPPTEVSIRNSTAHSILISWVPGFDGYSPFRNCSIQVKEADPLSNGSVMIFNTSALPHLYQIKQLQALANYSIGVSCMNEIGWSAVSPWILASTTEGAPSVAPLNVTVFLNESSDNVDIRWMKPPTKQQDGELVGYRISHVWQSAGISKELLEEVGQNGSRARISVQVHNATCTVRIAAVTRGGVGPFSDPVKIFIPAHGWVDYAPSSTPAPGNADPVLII

[5] = molecular target: T4, Recombinant soluble extracellular domain of cynomolgus monkey MerTK (cynomolgus monkey, UniProt Q12866 21-505 (human entry)); test: as above
T4 construct: SPR analyte; also called cMerTK; Cynomolgus MerTK
T4 chain: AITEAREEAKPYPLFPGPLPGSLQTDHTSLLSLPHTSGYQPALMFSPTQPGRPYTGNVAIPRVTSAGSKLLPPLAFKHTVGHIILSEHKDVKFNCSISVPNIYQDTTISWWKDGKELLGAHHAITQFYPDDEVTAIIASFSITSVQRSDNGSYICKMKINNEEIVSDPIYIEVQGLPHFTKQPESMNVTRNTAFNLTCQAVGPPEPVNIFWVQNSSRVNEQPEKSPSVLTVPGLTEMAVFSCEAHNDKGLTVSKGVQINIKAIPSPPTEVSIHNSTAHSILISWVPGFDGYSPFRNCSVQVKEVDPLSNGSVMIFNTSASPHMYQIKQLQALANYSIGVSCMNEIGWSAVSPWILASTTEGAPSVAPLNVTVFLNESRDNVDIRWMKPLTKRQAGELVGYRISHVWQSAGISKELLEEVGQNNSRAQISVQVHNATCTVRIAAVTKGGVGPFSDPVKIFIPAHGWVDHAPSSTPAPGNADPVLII

[6] = molecular target: T5, Recombinant soluble extracellular domain of mouse MerTK (mouse, UniProt Q60805 19-497); test: as above
T5 construct: SPR analyte; also called mMerTK
T5 sequence: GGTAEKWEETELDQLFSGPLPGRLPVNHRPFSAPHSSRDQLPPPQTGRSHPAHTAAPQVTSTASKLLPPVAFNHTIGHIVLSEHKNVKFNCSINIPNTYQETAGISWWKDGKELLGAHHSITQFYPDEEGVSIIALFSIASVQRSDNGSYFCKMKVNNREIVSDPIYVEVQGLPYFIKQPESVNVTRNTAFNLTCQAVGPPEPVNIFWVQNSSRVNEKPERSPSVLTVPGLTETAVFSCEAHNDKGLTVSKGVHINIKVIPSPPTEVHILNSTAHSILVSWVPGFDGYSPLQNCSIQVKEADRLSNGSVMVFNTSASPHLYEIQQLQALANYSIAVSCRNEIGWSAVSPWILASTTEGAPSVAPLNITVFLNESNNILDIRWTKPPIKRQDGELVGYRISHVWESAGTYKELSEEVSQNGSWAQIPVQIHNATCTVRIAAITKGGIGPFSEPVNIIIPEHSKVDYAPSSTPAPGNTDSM

B1: MoMAb 16B9 (antibody, V domains shown)
VH: EVQLQQSRPDLVKPGASVKMSCKASGYTFIDYNMHWVKQRHGKSLEWIGYIHPNNGGTSYNQKFKDKATLTMNKSSSTAYMELRSLTSEDSAVYYCSRSGIYYDYDSFFDYWGQGTTLTVSS
VL: DIQMTQSPASLYVSVGETVTITCRASENIYSHLAWYQQKLGKSPHLLVYAATNLADGVPSRFSGSGSGTQYSLKINSLQSEDFGSYYCQHFWGSPWTFGGGTKLEIK
notes: Mouse mAb
With B1 as the binder, how does the “Signaling Assay, hMerTK with Gas6, pSTAT1 IC50 (nM)” value [1] read?
The value was > 100 nM.

What about the “Signaling Assay, hMerTK without Gas6, pSTAT1 IC50 (nM)” value [1] of the same binder?
Its value is > 100 nM.

And the “Signaling Assay, mMerTK with Gas6, pSTAT1 IC50 (nM)” value [2]?
The value was 0.9 nM.

Does B1 bind [3]?
Result: no binding

And the Kd [4]?
Its Kd is > 250 nM.

And the Kd [5]?
Its Kd is > 100 nM.

What about the Kd [6] of the same binder?
Its Kd is 35.1 nM.

And the koff [6]?
Its koff is 0.00256 s⁻¹.

What about the kon [6] of the same binder?
The kon was 72700 M⁻¹ s⁻¹.

And the t1/2 [6]?
The t1/2 was 4.5 min.

From patent US20210395392A1 (Bristol-Myers Squibb, published 2021)
